Experimental data as given in publication doi:10.1101/2021.07.23.453429 (bioRxiv, 2021).

B1: cyclophilin D (enzyme)
chain: not shown

Tests used:
full-length p53 = full-length p53 (UniProt P04637 1-393); assay: SPR
cyclophilin D = target: B1; assay: SPR
Chain of cyclophilin D (P30405 43-207): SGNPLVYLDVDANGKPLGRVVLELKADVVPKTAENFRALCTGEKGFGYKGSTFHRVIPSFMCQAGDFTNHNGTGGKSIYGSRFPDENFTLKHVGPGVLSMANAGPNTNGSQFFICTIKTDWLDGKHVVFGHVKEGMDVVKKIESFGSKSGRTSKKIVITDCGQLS

## B1
full-length p53
  Kd: ~1 µM

B2: p53 NTD 20-70 (domain or fragment)
chain: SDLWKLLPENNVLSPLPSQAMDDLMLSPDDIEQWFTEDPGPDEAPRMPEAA
Cyclophilin D
  Kd: 9.4 µM
